Test results from article PMC10728164.

Target: cardiac troponin I (human (endogenous in heart tissue)) (UniProt P19429)
Experiment: affinity purification with mass spectrometry; co-purification of the cTn subunits from human heart extract on the cTnI-binding peptide nanoparticles (NP-Pep); 25 mM Tris pH 7.5, 700 mM LiCl, 4 °C; native elution; subunits in the eluate analysed (Supplementary Fig. 2, 3a) and by top-down RPLC-MS/MS

UniProt P19429, sequence (P19429 whole entry): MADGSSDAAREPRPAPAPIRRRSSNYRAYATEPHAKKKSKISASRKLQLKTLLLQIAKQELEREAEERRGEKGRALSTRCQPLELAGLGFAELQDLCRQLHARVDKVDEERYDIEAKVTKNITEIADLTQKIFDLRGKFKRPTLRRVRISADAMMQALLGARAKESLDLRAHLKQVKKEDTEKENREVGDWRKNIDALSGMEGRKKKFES

- stoichiometry N: 1
Substance: cardiac troponin T (natural protein)
